The data set addresses HaWRI1_DBD (6-His-TRX-WRI1_DBD) (Helianthus annuus (CAS-6 line), UniProt X2BZR1 51-229). The data set is described as follows: EMSA; polydIdC; 20 mM Tris-HCl pH 8.0, 250 mM NaCl, 2 mM MgCl2, 1% glycerol, 1 mM DTT, 1 mg/mL BSA, 30 min room temperature, gels at 4 °C; DIG EMSA plus 0.05 µg/µL polydIdC. As to conditions: protein: recombinant; tags: N-terminal 6xHis-thioredoxin fusion; label: digoxigenin; blunt.

Sequence of HaWRI1_DBD (6-His-TRX-WRI1_DBD) (X2BZR1 entry or part of it): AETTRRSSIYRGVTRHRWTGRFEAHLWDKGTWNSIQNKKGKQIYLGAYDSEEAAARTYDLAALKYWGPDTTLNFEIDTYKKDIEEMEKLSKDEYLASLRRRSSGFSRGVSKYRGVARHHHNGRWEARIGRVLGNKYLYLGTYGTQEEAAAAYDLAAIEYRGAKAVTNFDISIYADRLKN

B1: FATA1 AW box 24 bp (dsDNA)
DNA 1: CAGTCCTCGTGCATATCGGAGTCT
DNA 2: AGACTCCGATATGCACGAGGACTG
B1: the binding result was “binds”.

(Values after paper PMC9002759, “The Sunflower WRINKLED1 Transcription Factor Regulates Fatty Acid Biosynthesis Genes through an AW Box Binding Sequence with a Particular Base Bias”.)
